Data: paper PMC2807882

T1: Mmp53 (mouse p53) with C-terminal FlAsH tag, labelled with FlAsH (mouse (Mus musculus)), P02340
T1 chain: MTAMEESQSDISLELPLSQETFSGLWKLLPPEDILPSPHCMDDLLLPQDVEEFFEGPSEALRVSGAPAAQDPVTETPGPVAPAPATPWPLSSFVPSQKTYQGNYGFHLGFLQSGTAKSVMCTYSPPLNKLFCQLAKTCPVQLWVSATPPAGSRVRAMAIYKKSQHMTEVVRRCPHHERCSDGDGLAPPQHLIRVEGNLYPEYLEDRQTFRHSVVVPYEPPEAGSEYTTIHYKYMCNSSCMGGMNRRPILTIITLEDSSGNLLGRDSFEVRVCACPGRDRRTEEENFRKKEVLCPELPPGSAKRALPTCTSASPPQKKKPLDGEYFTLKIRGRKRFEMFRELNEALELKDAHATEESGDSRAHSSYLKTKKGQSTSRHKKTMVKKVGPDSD

T2: Mus musculus p53, full length, with C-terminal FlAsH tag, FlAsH-labelled (Mus musculus), P02340
T2 chain: T1 chain

B1: Mmp53 (mouse p53) with C-terminal FlAsH tag, labelled with FlAsH, P02340 1-390 (natural protein)
chain: T1 chain
modifications: here or on the partner: FlAsH (from FlAsH-EDT2, Lumio Green) on the C-terminal CCPGCC tetra-cysteine tag; FlAsH (from FlAsH-EDT2, Lumio Green) on the C-terminal CCPGCC tetra-cysteine tag
B2: Mus musculus p53, full length, with C-terminal FlAsH tag, FlAsH-labelled, P02340 1-390 (natural protein)
chain: T1 chain
modifications: here or on the partner: FlAsH (from FlAsH-EDT2, an arsenic derivative of fluorescein) on the C-terminal CCPGCC tetra-cysteine tag; FlAsH (from FlAsH-EDT2, an arsenic derivative of fluorescein) on the C-terminal CCPGCC tetra-cysteine tag

Columns and labels:
[1] = target: T1, Mmp53 (mouse p53) with C-terminal FlAsH …; experiment: AUC; sedimentation velocity with fluorescence detection, FlAsH-labelled protein at 5-500 nM; 150 mM NaCl, 25 mM phosphate pH 7.2, 10% glycerol, BSA 0.2 mg/mL, 1 mM beta-mercaptoethanol, 10°C; tetramer to dimers; Kd expressed in concentration of monomer; settings: remark: other sources report otherwise
[2] = target: T1, Mmp53 (mouse p53) with C-terminal FlAsH …; experiment: dimer-tetramer equilibrium; settings: natural protein, chains chain, FlAsH (from FlAsH-EDT2, Lumio Green) on the C-terminal CCPGCC tetra-cysteine tag, remark: other sources report otherwise
[3] = target: T2, Mus musculus p53, full length, with …; experiment: AUC; sedimentation velocity with fluorescence detection, FlAsH-labelled protein at 5-500 nM (monomer); 150 mM NaCl, 25 mM phosphate pH 7.2, 10% glycerol, BSA 0.2 mg/mL, 1 mM β-mercaptoethanol, 10°C; tetramer to dimers; Kd expressed in concentration of monomer; settings: remark: other sources report otherwise

Binder | fold weaker self-association (dimer-tetramer equilibrium) than Dmp53, Drp53 and ΔNp73β [1] | stoichiometry N [1] | Kd [2] | Kd [3]
B1 | 10 fold | 4 | 17.2 nM | 
B2 |  |  |  | 17.2 nM
